Laboratory results: patent US20250000936A1, “TREATMENT OF GEOGRAPHIC ATROPHY” (Apellis Pharmaceuticals, Inc., priority 2021, published 2025)
Where “and” joins values, the source holds several entries; their conditions need not be identical. Identical values can stand only once.

Assays:
[1] = test system: patients with geographic atrophy (GA) secondary to age-related macular degeneration (AMD); assay: OAKS Phase 3 study: GA lesion growth in study eye by fundus autofluorescence; assay type: in vivo, human; settings: for reduction in GA lesion growth from baseline compared to sham: over 24 months; for reduction in lesion growth in the study eye versus the untreated study eye, after adjusting for sham / reduction in lesion growth in the study eye versus the untreated study eye: bilateral GA; for reduction in lesion growth in the study eye versus the untreated study eye, after adjusting for sham / reduction in lesion growth in the study eye versus the untreated study eye / percentage reduction versus sham pooled: 18 months
[2] = test system: patients with geographic atrophy (GA) secondary to age-related macular degeneration (AMD); assay: DERBY Phase 3 study: safety; settings: for Patients with new onset fellow eye eAMD: through 18 months
Procedure: All randomized subjects returned every month to the clinical site for assessments and additional pegcetacoplan or sham injections according to their randomization scheme until Month 12. From Month 12 onwards, subjects return to the clinical site based on their randomized treatment schedule (monthly or EOM) and follow the treatment regimen and assessments outlined in the Visit Schedule until Month 24. Safety was assessed throughout the study by a number of evaluations including: monitoring of AEs, preinjection and postinjection monitoring, blood and urine samples collected, physical examination, vital signs, and follow-up phone calls. Blood samples were also be collected for anti-therapeutic antibodies, genotyping, and clinical repository (if the subject consented to this portion).
The Safety set consisted of all subjects randomized who received at least one injection of pegcetacoplan or sham. Subjects were analyzed according to the actual treatment received. […] This population was used for all safety analyses.

[3] = post-hoc quartiles of GA lesion growth over 18 months (FIG. 27)
[4] = PEOM (every other month), 12 months
[5] = PEOM (every other month), 18 months
[6] = PEOM (every other month), N=208

Poly(oxy-1,2-ethanediyl), α-hydro-ω-hydroxy-, 15,15′-diester with N-acetyl-L-isoleucyl-L-cysteinyl-L-valyl-1-methyl-L-tryptophyl-L-glutaminyl-L-α-aspartyl-L-tryptophylglycyl-L-alanyl-L-histidyl-L-arginyl-L-cysteinyl-L-threonyl-2-[2-(2-aminoethoxy) ethoxy]acetyl-N^6-carboxy-L-lysinamide cyclic (2->12)-(disulfide) [pegcetacoplan]
reduction of GA lesion growth versus sham ([1]; EOM, months 18-24, p=0.0007): 25%
reduction in GA lesion growth from baseline compared to sham ([1]; EOM, p 0.0002 nominal): 18%
reduction in lesion growth in the study eye versus the untreated study eye, after adjusting for sham ([1]; every other month): 15%
reduction in lesion growth in the study eye versus the untreated study eye ([1]; every other month, p=0.1274): 7%
reduction in lesion growth in the study eye versus the untreated study eye, after adjusting for sham ([1]; monthly): 26%
reduction in lesion growth in the study eye versus the untreated study eye ([1]; monthly, p<0.0001): 19%
reduction in GA lesion growth versus sham ([1]; distance >250 microns, every other month, p=0.1203): 15%
reduction in GA lesion growth versus sham ([1]; distance ≤250 microns, monthly, p=0.0002): 22%
percentage reduction versus sham pooled ([1]; every other month, >50 microns, p=0.0430): 17%
percentage reduction versus sham pooled ([1]; every other month, >100 microns, p=0.0338): 18%
percentage reduction versus sham pooled ([1]; every other month, >150 microns, p=0.0575): 17%
percentage reduction versus sham pooled ([1]; every other month, >200 microns, p=0.1002): 15%
reduction in GA lesion growth vs pooled sham ([1]; every other month, month 12, p=0.0052): 16%
reduction in extrafoveal GA lesion growth vs pooled sham ([1]; every other month, month 18, p 0.0422): 17%
reduction in GA lesion growth, covariate-adjusted post-hoc analysis ([1]; every other month, month 18, p=0.0002): 18%
reduction in foveal GA lesion growth, covariate-adjusted ([1]; every other month, month 18, p=0.0008): 19%
reduction in GA lesion growth vs pooled sham ([1]; every other month, month 18, p=0.0018 nominal): 16%
reduction in foveal GA lesion growth vs pooled sham ([1]; every other month, month 18, p=0.0020): 19%
reduction in extrafoveal GA lesion growth, covariate-adjusted ([1]; every other month, month 18, p=0.0673): 15%
percentage reduction versus sham pooled ([1]; monthly, >100 microns, p<0.0001): 34%
percentage reduction versus sham pooled ([1]; monthly, >150 microns, p<0.0001): 34%
percentage reduction versus sham pooled ([1]; monthly, >200 microns, p<0.0001): 34%
percentage reduction versus sham pooled ([1]; monthly, distance to foveal center point >50 microns, p<0.0001): 33%
reduction in GA lesion growth vs pooled sham ([1]; monthly, month 12, p=0.0003): 22%
reduction in GA lesion growth, covariate-adjusted post-hoc analysis ([1]; monthly, month 18, p<0.0001): 26%
reduction in extrafoveal GA lesion growth vs pooled sham ([1]; monthly, month 18, p<0.0001): 33%
reduction in extrafoveal GA lesion growth, covariate-adjusted ([1]; monthly, month 18, p<0.0001): 33%
reduction in GA lesion growth vs pooled sham ([1]; monthly, month 18, p<0.0001 nominal): 22%
reduction in foveal GA lesion growth, covariate-adjusted ([1]; monthly, month 18, p=0.0044): 19%
reduction in foveal GA lesion growth vs pooled sham ([1]; monthly, month 18, p=0.0105): 18%
reduction of GA lesion growth versus sham ([1]; monthly, months 18-24, p=0.0080): 24%
reduction in GA lesion growth from baseline compared to sham ([1]; monthly, p<0.0001 nominal): 22%
decrease of patients in Q4 (fast progressors), relative to sham [1, 3]: 43%
increase of patients in Q1 (slow progressors), relative to sham [1, 3]: 83%
All TEAEs, Total events, M [2, 4]: 600
All TEAEs, patients [2, 4]: 155 (74.5%) n (%)
Cases of MNV (FA) detected by reading center but not reported by Investigator as AE [2, 4]: 1
Non-ocular TEAEs, Patients [2, 4]: 110 (52.9%) n (%)
Non-ocular TEAEs, events M [2, 4]: 339
Ocular TEAE in study eye Vitreous floaters, events M [2, 4]: 5
Ocular TEAE in study eye Vitreous floaters, patients [2, 4]: 4 (1.9%) n (%)
Ocular TEAEs in study eye, Patients [2, 4]: 91 (43.8%) n (%) and 91 (43.8) n (%)
Ocular TEAEs in study eye, events M [2, 4]: 162
Serious ocular TEAE Dry AMD, patients [2, 4]: 0 n (%)
Serious ocular TEAE Endophthalmitis, patients [2, 4]: 0 n (%)
Serious ocular TEAE Macular hole, patients [2, 4]: 0 n (%)
Serious ocular TEAE Optic ischemic neuropathy, patients [2, 4]: 0 n (%)
Serious ocular TEAE Papilledema, patients [2, 4]: 0 n (%)
Serious ocular TEAE Retinal detachment, patients [2, 4]: 0 n (%)
Serious ocular TEAE Vitritis, patients [2, 4]: 0 n (%)
Serious ocular TEAEs in the study eye, patients [2, 4]: 0 n (%)
Sum of investigator-determined eAMD and reading center cases not reported by investigators [2, 4]: (3.8%)
Sum of investigator-determined eAMD and reading center cases not reported by investigators ([2]; PEOM (every other month), 12 months, count): 8
All TEAEs, Total events, M [2, 5]: 835
All TEAEs, patients [2, 5]: 171 (82.2%) n (%)
Non-ocular TEAEs, M [2, 5]: 495
Non-ocular TEAEs, Patients [2, 5]: 132 (63.5%) n (%)
Ocular TEAEs in study eye, M [2, 5]: 216
Ocular TEAEs in study eye, Patients [2, 5]: 99 (47.6%) n (%)
Discontinued study prior to Month 12, reason Adverse Event [2, 6]: 4 (1.9%) n (%)
Discontinued study prior to Month 12, reason Death [2, 6]: 0 n (%)
Discontinued study prior to Month 18, reason Adverse event [2, 6]: 4 (1.9%) n (%)
Discontinued study prior to Month 18, reason Death [2, 6]: 4 (1.9%) n (%)
Patients with new onset fellow eye eAMD ([2]; PEOM (every other month), 166 patients without baseline fellow eye CNV): 8 (4.8%) n (%)
All TEAEs, Total events, M ([2]; PM (monthly), 12 months): 708
All TEAEs, patients ([2]; PM (monthly), 12 months): 158 (76.7%) n (%)
Cases of MNV (FA) detected by reading center but not reported by Investigator as AE ([2]; PM (monthly), 12 months): 0
Non-ocular TEAEs, Patients ([2]; PM (monthly), 12 months): 127 (61.7%) n (%)
Non-ocular TEAEs, events M ([2]; PM (monthly), 12 months): 396
Ocular TEAE in study eye Vitreous floaters, events M ([2]; PM (monthly), 12 months): 22
Ocular TEAE in study eye Vitreous floaters, patients ([2]; PM (monthly), 12 months): 18 (8.7%) n (%)
Ocular TEAEs in study eye, Patients ([2]; PM (monthly), 12 months): 100 (48.5%) n (%)
Ocular TEAEs in study eye, events M ([2]; PM (monthly), 12 months): 227
Serious ocular TEAE Dry AMD, patients ([2]; PM (monthly), 12 months): 0 n (%)
Serious ocular TEAE Endophthalmitis, patients ([2]; PM (monthly), 12 months): 0 n (%)
Serious ocular TEAE Macular hole, patients ([2]; PM (monthly), 12 months): 0 n (%)
Serious ocular TEAE Optic ischemic neuropathy, patients ([2]; PM (monthly), 12 months): 0 n (%)
Serious ocular TEAE Papilledema, patients ([2]; PM (monthly), 12 months): 0 n (%)
Serious ocular TEAE Retinal detachment, patients ([2]; PM (monthly), 12 months): 0 n (%)
Serious ocular TEAE Vitritis, events M ([2]; PM (monthly), 12 months): 1
Serious ocular TEAE Vitritis, patients ([2]; PM (monthly), 12 months): 1 (0.5%) n (%)
Serious ocular TEAEs in the study eye, events M ([2]; PM (monthly), 12 months): 1
Serious ocular TEAEs in the study eye, patients ([2]; PM (monthly), 12 months): 1 (0.5%) n (%)
Sum of investigator-determined eAMD and reading center cases not reported by investigators ([2]; PM (monthly), 12 months): (6.8%)
Sum of investigator-determined eAMD and reading center cases not reported by investigators ([2]; PM (monthly), 12 months, count): 14
All TEAEs, Total events, M ([2]; PM (monthly), 18 months): 993
All TEAEs, patients ([2]; PM (monthly), 18 months): 170 (82.5%) n (%)
Non-ocular TEAEs, M ([2]; PM (monthly), 18 months): 567
Non-ocular TEAEs, Patients ([2]; PM (monthly), 18 months): 148 (71.8%) n (%)
Ocular TEAEs in study eye, M ([2]; PM (monthly), 18 months): 308
Ocular TEAEs in study eye, Patients ([2]; PM (monthly), 18 months): 118 (57.3%) n (%)
Discontinued study prior to Month 12, reason Adverse Event ([2]; PM (monthly), N=206): 1 (0.5%) n (%)
Discontinued study prior to Month 12, reason Death ([2]; PM (monthly), N=206): 5 (2.4%) n (%)
Discontinued study prior to Month 18, reason Adverse event ([2]; PM (monthly), N=206): 3 (1.5%) n (%)
Discontinued study prior to Month 18, reason Death ([2]; PM (monthly), N=206): 6 (2.9%) n (%)
Patients with new onset fellow eye eAMD ([2]; PM (monthly), 167 patients without baseline fellow eye CNV): 4 (2.4%) n (%)
patients with study eye investigator-determined new-onset exudative AMD ([2]; every other month, month 18, 11/208 patients): 5.3%
patients with study eye investigator-determined new-onset exudative AMD ([2]; monthly, month 18, 24/206 patients): 11.7%
